The text below walks through data of US20090104231A1.

For experiment [1], the target named is NS5B CD4 peptide … presented by MHC of C57BL/6 mice (Hepatitis C virus).
Experiment [2] addresses NS5B CD8 peptide … presented by MHC of C57BL/6 mice (Hepatitis C virus).
For experiment [3], the target named is purified HCV NS5B protein (genotype 1b) from Mikrogen (Hepatitis C virus genotype 1b).
For experiment [4], the target named is NS4B CD8 peptide … presented by MHC of Balb/c mice (Hepatitis C virus).
Experiment [5] concerns the target purified HCV NS4 protein (genotype 1b) from Mikrogen (Hepatitis C virus genotype 1b).
The target in experiment [6] is NS4B CD4 peptide … presented by MHC of Balb/c mice (Hepatitis C virus).
Experiment [7] concerns the target NS3 CD4 peptide … presented by MHC of C57B1 mice (Hepatitis C virus).
Experiment [8] deals with purified HCV NS3 protein (genotype 1b) from Mikrogen (Hepatitis C virus genotype 1b).
The target of experiment [9] is NS3 CD8 peptide … presented by MHC of C57B1 mice (Hepatitis C virus).
The target of experiment [10] is NS3 CD4 peptide … presented by MHC of C57B1 mice (Hepatitis C virus). This is another data set of the same source.
Experiment [11] has as its target NS3 CD8 peptide … presented by MHC of C57B1 mice (Hepatitis C virus). This is another data set of the same source.
Experiment [12] addresses NS3 CD4 peptide … presented by MHC of C57B1 mice (Hepatitis C virus). The source holds these as a separate data set.
Experiment [13] deals with NS3 CD8 peptide … presented by MHC of C57B1 mice (Hepatitis C virus). This is another data set of the same source.

As for “splenocytes of C57BL mice immunised with DNA encoding polyprotein HCV 501 (Core (66-191)-(1-65)-NS3-NS4B-NS5B) (cells without a defined receptor)”, the IFNγ-producing T cells, intracellular cytokine staining (frequency (unit not given)) was 0.13 in experiment [1]; 0.09 in [2]; 0.03 in experiment [3]; 0.13 in experiment [4]; 0.09 in experiment [5]; 0.06 in [6]. In addition, the IFNγ-producing T cells, intracellular cytokine staining (frequency (unit not given)) in experiment [7] was determined as 0.08; in [8], 0.05; in [9], 0.16.
Consider “splenocytes of mice immunised with DNA encoding NS5B as single antigen (cells without a defined receptor)”, for which the IFNγ-producing T cells, intracellular cytokine staining (frequency (unit not given)) in [1] is 0.26; in experiment [2] it was 1.67; in experiment [3], 0.1.
As for “splenocytes of C57BL mice immunised with DNA encoding polyprotein HCV 510 (NS3-NS4B-NS5B-Core) (cells without a defined receptor)”, the IFNγ-producing T cells, intracellular cytokine staining (frequency (unit not given)) in experiment [1] turned out to be 0.29; in [2], 0.11; in [3] it was 0.1; in experiment [4], 0.34; in experiment [5], 0.09; in [6], 0.09. In addition, the IFNγ-producing T cells, intracellular cytokine staining (frequency (unit not given)) is 0.29 in [7] and 0.17 in experiment [8]. In addition, the IFNγ-producing T cells, intracellular cytokine staining (% of CD8+ cells (unit from paragraph 162)) in experiment [9] came out at 3.95.
For the substance “splenocytes of mice immunised with DNA encoding NS4B as single antigen (cells without a defined receptor)”, the IFNγ-producing T cells, intracellular cytokine staining (frequency (unit not given)) came to 2.04 in experiment [4], 0.17 in [5] and 0.18 in experiment [6].
Turning to “splenocytes of C57BL mice immunised with DNA encoding NS3 alone (cells without a defined receptor)”, the IFNγ-producing T cells, intracellular cytokine staining (frequency (unit not given)) in [7] came out at 0.24; in experiment [8] it was 0.29. Further, the IFNγ-producing T cells, intracellular cytokine staining (% of CD8+ cells (unit from paragraph 162)) in [9] was found to be 4.4.
Regarding “T cells of C57BL mice immunised with gold beads co-coated with p7313ieNS3/NS4B/NS5B triple fusion together with core 151 (cells without a defined receptor)”, the intracellular cytokine staining (fold over the Core 191 group) in experiment [10] and in experiment [11] was 2 throughout.
With “splenocytes of C57BL mice immunised with DNA encoding polyprotein HCV 530 (NS5B-Core-NS3-NS4B) (cells without a defined receptor)”, the IFNγ-producing T cells, intracellular cytokine staining (frequency (unit not given)) came to 0.7 in experiment [1]; 0.12 in [2]; 0.06 in experiment [3]; 0.37 in experiment [4]; 0.17 in [5]; 0.1 in [6]. The IFNγ-producing T cells, intracellular cytokine staining (frequency (unit not given)) amounted to 0.21 in [7] and 0.15 in experiment [8]. In experiment [9], the IFNγ-producing T cells, intracellular cytokine staining (% of CD8+ cells (unit from paragraph 162)) amounted to 4.89.
Consider “T cells of C57BL mice immunised with gold beads co-coated with p7313ieNS3, p7313ieNS5B and p7313ieCore151 (cells without a defined receptor)”, for which the intracellular cytokine staining of IFNγ and IL2 (fold over the Core 191 group) in experiment [12] and in experiment [13] was 2 in each case.
Consider “splenocytes of C57BL mice immunised with DNA encoding polyprotein HCV 520 (NS4B-NS5B-Core-NS3) (cells without a defined receptor)”, for which the IFNγ-producing T cells, intracellular cytokine staining (frequency (unit not given)) in experiment [1] was 0.18; in experiment [2], 0.08; in experiment [3] it was 0.09; in [4], 0.33; in experiment [5], 0.08; in [6] it was 0.05. Also, the IFNγ-producing T cells, intracellular cytokine staining (frequency (unit not given)) in experiment [7] was determined as 0.28; in experiment [8], 0.14. This substance yielded an IFNγ-producing T cells, intracellular cytokine staining (% of CD8+ cells (unit from paragraph 162)) in experiment [9] of 3.32.
Consider “splenocytes of C57BL mice immunised with DNA encoding polyprotein HCV 500 (Core-NS3-NS4B-NS5B) (cells without a defined receptor)”, for which the IFNγ-producing T cells, intracellular cytokine staining (frequency (unit not given)) in [1] is 0.43; in experiment [2], 0.35; in [3], 0.14; in [4], 0.6; in experiment [5], 0.09; in experiment [6] it was 0.1. For the same substance, the values for the IFNγ-producing T cells, intracellular cytokine staining (frequency (unit not given)) in experiment [7] and in experiment [8] were 0.38 and 0.27, respectively. In [9], the IFNγ-producing T cells, intracellular cytokine staining (% of CD8+ cells (unit from paragraph 162)) was determined as 5.54.
